Laboratory results taken from doi:10.1101/2024.09.05.611430 (bioRxiv, 2024).
Where “and” joins values, the source holds several entries; their conditions need not be identical. Identical values can stand only once.

Target: the molecule itself
Assay: cryo-EM structure

B1: Mpn444 (Mycoplasma pneumoniae lipoprotein, recombinant, without the N-terminal signal sequence, aa 28-1325) (natural protein, UniProt P75334 28-1325, looked up)
chain: CAQPTASTVEGLFKPSSAFADRTDFSLSSILQKSLINRESFNQYLAMRLAPVLRTFYEDNYDTDIKERLNGFTADTDNAFVSQEQNLRNQFRENYLVHLQTDIFDNTGGNQAAWKLRDVNNKIIDDFISRIFAKNFVEYVQDGVGPLTKPTKSLIENTSNFKNIKLQPKFVNKNAKLKINNDAVYAAIQDKLLDQFITNENPNLVSRVVFTNETPVDGFDNYFNTKVIQSPTPSYQFQVFNKYNQQSGGTKGANGFNLLASNLKSYKNDQSKGIDIPNKFSSDSGGKLLLKASDMFDTFDPSFSAAFIQGYLALQKKSKGADSKEVDSLIKDKSIIENFFVDNNTQAAAAARAASSSSEGTIQLKTASDGGGTTQSTVHKTDLVKIFGDKDVFAGEYKQQIGNTNANQTGGGGSGGGGGTSTGSSTGSSTETTTGNSSKAVVDLIEVKKDSSSQPDYILSRGKDGIHLMAVDGGSHYLTESGRDVAKQKKFLLFRALQTKYGLVDTDTTYDFKLFDEVKKYFDTNRILFLFEALLDLSSDTNNKDNFLSYPQFKKFADSIKSIEKDLKELVQAHYKQAVFNETAVAENKVTLKLAERNQPFIDNERNNQIEQNGLAAKLPYEQDAKTGHYNDLGNYYKDIIDNVDKKGTSTVKTTSSNTGQTKNFSEEVVSKLKDNKKKVEEAAKKHVEALKVFTIPSPLYSQVILVQTKLSFTPESTSLGLNLALNNYLTSTELQNSIKLSYFQEDEAFKKIIDITNLTFSQQSGGTGGTNGNNNLTADNWKIFKETYLLDLFESQAQKSIFGHVGSSDKNSSTKTGIEGVLDTLYSSLNLEERLDSDDVIDYLSYLYTAHWLLKDNLKNYKQSLQSKLSRTSNAFLVWSVDSEKNKNDSQSTLSSTASSTSNTGLIQLRSVVSLAQNQAAGQGGDNNSDITQTEVKNPNFVFGSSVYDWTNSKTPEVNRAADDTSSFFYTKSSSSSTGAAQSSATVLRSLNQASGMTTKTAKNRYGFRGIVTSSTSGSLPEAVSRRLFKQFVNQTEKGVKVGGQMLITTAKSGKATLVLKQQADDAESTTNNAYKGALFSFGSMDNLKNIINGIQTQTEFDALYNHLTSDLNIDVTGVDKNKTLTEQKTSLTSFVDSNFKQSTQSAQRGDTSARSARSATVQIKKTQEDNQNTNYKDVFSRFDGYIGDNKVEEKNYTSYQFLSDGGKYHATFVKQVNLDDVEKIGTDSLKQEDSSKDKRLNLSLEEFLAAIALEALDPNNQTQAINALISGNKKGLVKVGDFRIFSSISAQWVRRF
For B1, the “stoichiometry N” value was 3 and 2.
